Consider 2 substances from PMC4201148.

Assay [1] concerns the target YFPn-SpvC (Salmonella enterica subsp. enterica serovar Typhimurium strain 14028s) (UniProt P0A2M9). Nature of the assay: split reporter (BiFC, NanoBiT); BiFC with YFPn and YFPc fusions co-expressed in Arabidopsis epidermal cells by particle bombardment together with p35S-mCherry; fluorescence observed 24-48 h after transformation by confocal microscopy; YFP-positive cells counted among mCherry-positive cells.

Assay [2] concerns the target YFPc-SpvC (Salmonella enterica subsp. enterica serovar Typhimurium strain 14028s) (UniProt P0A2M9). Described as above.

In assay [1], “YFPc-MPK6 (from UniProt Q39026 1-395) (transformed cells)” registered a percent of transformed cells with reconstituted YFP of 34%.

For YFPn-MPK6 (from UniProt Q39026 1-395), the percent of transformed cells with reconstituted YFP in assay [2] is 18%.
